According to patent publication US20220106398A1 (IGM BIOSCIENCES, published 2022):

T1: human His6-GITR (human, UniProt Q9Y5U5 26-162)
T1 construct: His6-tagged recombinant protein; also called hGITR-His; human GITR-His
T1 sequence: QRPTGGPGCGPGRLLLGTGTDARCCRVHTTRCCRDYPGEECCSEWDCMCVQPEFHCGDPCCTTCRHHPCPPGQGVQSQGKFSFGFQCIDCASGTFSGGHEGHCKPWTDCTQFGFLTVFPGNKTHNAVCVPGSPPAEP

T2: mouse His6-GITR (mouse, UniProt O35714 20-153)
T2 construct: His6-tagged recombinant protein; also called mGITR-His; mouse GITR-His
T2 sequence: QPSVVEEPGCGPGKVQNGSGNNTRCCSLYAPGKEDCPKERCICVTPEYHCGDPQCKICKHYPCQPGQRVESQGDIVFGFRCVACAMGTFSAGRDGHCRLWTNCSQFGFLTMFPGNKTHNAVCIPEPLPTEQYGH

T3: cynomolgus monkey His6-GITR (cynomolgus monkey)
T3 construct: His6-tagged recombinant protein; also called cGITR-His; cyno GITR-His
T3 chain: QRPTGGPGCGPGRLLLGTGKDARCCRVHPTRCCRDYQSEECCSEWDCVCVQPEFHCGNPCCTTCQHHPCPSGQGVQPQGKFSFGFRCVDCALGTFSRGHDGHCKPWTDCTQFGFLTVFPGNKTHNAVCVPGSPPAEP


Experiments:
Test in all cases: ELISA, scFv periplasmic extract on coated His6-GITR
human His6-GITR = molecular target: T1, human His6-GITR
Method: (§1) The SuperHuman-2.0 scFv Antibody Library (available from Distributed Bio, South San Francisco, Calif.) was used to perform selection with human, cynomolgus or mouse GITR proteins. Selected phage clones from overnight growth were inoculated into wells in 96 well deep well plates containing 1 mL of medium. scFv expression was induced by addition of IPTG (Teknova) to a final concentration of 1 mM. Plates were grown overnight after induction. To prepare periplasmic extracts (PPE), the plates containing the phage clones were centrifuged at 2500 rpm for 10 min, the supernatant discarded and then pellets treated with 75 μL of cold periplasmic extract buffer with appropriate concentration of protease inhibitors (Complete Mini, EDTA-free -Roche Applied Biosciences—Cat No 1836170). After shaking at room temperature for 10 min, 225 μL of cold ddH2O with added protease inhibitor (1 tablet/50 mL) was added per well and mixed by pipetting up and down. PPE extraction was completed by incubation at room temperature for an additional 1 hr. The plates were then centrifuged at 4000 rpm for 20 minutes and 200 μL of PPE supernatant was collected from each well and transferred to a new plate which was then blocked with equal volume of 4% milk (2% final) to prepare blocked PPE extracts. In the meantime, Maxisorp plates (Nunc 442404) coated with relevant antigen (human, mouse or cynomolgus monkey His6-GITR) at 50 μl/well of 1 μg/mL antigen or 2% BSA in PBS as control were prepared for ELISA analyses. Next, 50 μL of each blocked PPE extract was transferred to the pre-blocked ELISA plates coated with the relevant antigens. After incubation and washing 3× with PBS, 50 μL of anti-V5 tag antibody (tag included in the phage display constructs, Invitrogen Cat No R960-25) at 1:5000 dilution in 2% milk was added and the plates were incubated for 1 hr. […] After further washing 3× with PBST, 50 μl/well of TMB substrate was added and the plates were developed until positive controls were visible. The reaction was stopped with 50 μl/well of 2N H2SO4. Plates were read at 450 nm to determine ELISA signal from bound PPE derived scFv.

mouse His6-GITR = molecular target: T2, mouse His6-GITR
Method: as §1

[1] = molecular target: T3, cynomolgus monkey His6-GITR
Method: as §1

Row | Binder | hGITR-His/BKG (human His6-GITR) | mGITR-His/BKG (mouse His6-GITR) | cGITR-His/BKG [1]
1 | GITR-Mab-45 scFv (scFv, V domains shown, scFv in periplasmic extract, V5 tag) VH: QVQLVQSGAEVKKPGASVKVSCKASGYTFTSYGISWVRQAPGQGLEWMGWMNPNSGNTGYAQKFQGRVTMTRDTSTSTVYMELSSLRSEDTAVYYCAREVYGDLDYWGQGTLVTVSS VL: DIQMTQSPSSLSASVGDRVTITCRASQGIDNWLAWYQQKPGKAPKLLIYGASTLQSGVPSRFSGSGSGTDFTLTISSLQPEDFATYYCQQSYTARFTFGPGTKVDIK | 1.4 fold over background | 4.5 fold over background | 
2 | GITR-Mab-38 scFv (scFv, V domains shown, scFv in periplasmic extract, V5 tag) VH: QVQLVQSGAEVKKPGASVKVSCKASGGTFRNYAINWVRQAPGQGLEWMGWMNPNSGNTGYAQKFQGRVTMTRDTSTSTVYMELSSLRSEDTAVYYCAREDVDTASQAYFDYWGQGTLVTVSS VL: DIQMTQSPSSLSASVGDRVTITCRASQGISNYLAWYQQKPGKAPKLLIYSASNLQSGVPSRFSGSGSGTDFTLTISSLQPEDFATYYCQQGYSSRYTFGQGTKLEIK | 2.9 fold over background |  | 
3 | GITR-Mab-27 scFv (scFv, V domains shown, scFv in periplasmic extract, V5 tag) VH: QVQLVQSGAEVKKPGASVKVSCKASGYTFTSYDINWVRQAPGQGLEWIGWMNTNSGDTGYAQKFQGRVTMTRDTSTSTVYMELSSLRSEDTAVYYCARQAYSSSWYWYGWFDPWGQGTLVTVSS VL: DIQMTQSPSSLSASVGDRVTITCQASHDIDNYLNWYQQKPGKAPKLLIYAASNLQSGVPSRFSGSGSGTDFTLTISSLQPEDFATYYCQQANSFPLTFGPGTKVDIK | 24.6 fold over background | 1.3 fold over background | 1 fold over background
4 | GITR-Mab-29 scFv (scFv, V domains shown, scFv in periplasmic extract, V5 tag) VH: QVQLVQSGAEVKKPGASVKVSCKASGYTFSSDYIHWVRQAPGQGLEWMGRINPSGGSTLYARRFQGRVTMTRDTSTSTVYMELSSLRSEDTAVYYCARERGAADTWYFDLWGRGTLVTVSS VL: not shown | 12.4 fold over background | 1 fold over background | 1.1 fold over background
5 | GITR-Mab-1 scFv (scFv, V domains shown, scFv in periplasmic extract, V5 tag) VH: QVQLVQSGAEVKKPGASVKVSCKASGYTFTNYHLHWVRQAPGQGLEWMGMINPNDGSTTYAQKFQGRVTMTRDTSTSTVYMELSSLRSEDTAVYYCARSTYYYDSSGYYYYYYGMDVWGQGTTVTVSS VL: EIVMTQSPATLSVSPGERATLSCRASQSVYSNYLAWYQQKPGQAPRLLIYGASTRATGIPARFSGSGSGTEFTLTISSLQSEDFAVYYCQQYHSYPLTFGGGTKVEIK | 13.2 fold over background | 1.1 fold over background | 15.8 fold over background
6 | GITR-Mab-28 scFv (scFv, V domains shown, scFv in periplasmic extract, V5 tag) VH: QVQLVQSGAEVKKPGASVKVSCKASGYTFPNYGITWVRQAPGQGLEWMGWMNPNSGYTGYAQNFQGRVTMTRDTSTSTVYMELSSLRSEDTAVYYCARGMPGRGFDPWGQGTLVTVSS VL: EIVMTQSPATLSVSPGERATLSCRASQSVSSNYLAWYQQKPGQAPRLLIYGASTRATGIPARFSGSGSGTEFTLTISSLQSEDFAVYYCQQYHTYPPTFGQGTKLEIK | 11.5 fold over background | 1 fold over background | 1 fold over background
7 | GITR-Mab-31 scFv (scFv, V domains shown, scFv in periplasmic extract, V5 tag) VH: QVQLVQSGAEVKKPGSSVKVSCKASGGTFSSYAISWVRQAPGQGLEWMGGIIPISSATSIPQKFQGRVTITADESTSTAYMELSSLRSEDTAVYYCARSYDSRYYGMDVWGQGTTVTVSS VL: EIVMTQSPATLSVSPGERATLSCRASQTVGSRYLAWYQQKPGQAPRLLIYGASTRATGIPARFSGSGSGTEFTLTISSLQSEDFAVYYCQQYYSTPWTFGQGTRLEIK | 17.7 fold over background | 1.2 fold over background | 1.2 fold over background
8 | GITR-Mab-30 scFv (scFv, V domains shown, scFv in periplasmic extract, V5 tag) VH: QVQLVQSGAEVKKPGASVKVSCKASGGTFSSYAISWVRQAPGQGLEWMGIIDPTGGATAYAQEFQGRVTMTRDTSTSTVYMELSSLRSEDTAVYYCARVGYYYGMDVWGQGTMVTVSS VL: not shown | 18.7 fold over background | 1 fold over background | 1 fold over background
